According to article PMC7007005:
Values belong to the molecule of their own block, whether it stands above or below them.

Key:
[1] = target: FMN-containing OdAu1aLOV (isolated LOV domain of Ochromonas danica Aureochrome1a) (Ochromonas danica); test: SEC; concentration-dependent analytical gel filtration of lit-state OdAu1aLOV, 200 to 10 μM (Figure S6); column illuminated with 450 nm LEDs
[2] = target: FMN-containing OdAu1aLOV (isolated LOV domain of Ochromonas danica Aureochrome1a) (Ochromonas danica); test: SEC; analytical gel filtration of OdAu1aLOV in the lit state (column illuminated with 450 nm LEDs); HEPES 20 mM pH 7.4, NaCl 100 mM, MgCl2 10 mM, TCEP 0.3 mM; 100 μM protein
[3] = target: T1, OdAu1abZIPLOV (Aureochrome1a bZIP-LOV), 5dFMN cofactor (Ochromonas danica, UniProt C5NSW6); test: EMSA; dark state; single shifted band, no supershift; DNA binding buffer: 20 mM HEPES pH 7.4, 100 mM NaCl, 10 mM MgCl2, 1 mM TCEP; EMSA: 20 nM DNA, 10% glycerol, BSA, poly-dI-dC, at 4 C; SEC samples incubated 30 mi
[4] = target: T2, OdAu1abZIPLOV (Aureochrome1a bZIP-LOV), FMN cofactor (Ochromonas danica, UniProt C5NSW6); test: EMSA; lit state (450 nm); supershifted band, putative 2:1 complex; DNA binding buffer: 20 mM HEPES pH 7.4, 100 mM NaCl, 10 mM MgCl2, 1 mM TCEP; EMSA: 20 nM DNA, 10% glycerol, BSA, poly-dI-dC, at 4 C; SEC samples incubated 30 mi
[5] = target: T3, FMN-containing OdAu1a_(bZIPLOV) (bZIP and LOV domains of Ochromonas danica Aureochrome1a) (Ochromonas danica); test: SEC; analytical gel filtration of OdAu1a_(bZIPLOV) in the dark state (Figures S7-S9)
[6] = target: T3, FMN-containing OdAu1a_(bZIPLOV) (bZIP …); test: SEC; analytical gel filtration of OdAu1a_(bZIPLOV) in the lit state (450 nm LEDs; Figures S7-S9)
[7] = target: T4, 5dFMN-containing OdAu1a_(bZIPLOV) (bZIP and LOV domains of Ochromonas danica Aureochrome1a refolded with 5-deazaflavin mononucleotide) (Ochromonas danica); test: SEC; analytical gel filtration of OdAu1a_(bZIPLOV) in the dark state (Figures S7-S9)
[8] = target: T4, 5dFMN-containing OdAu1a_(bZIPLOV) (bZIP …); test: SEC; analytical gel filtration of OdAu1a_(bZIPLOV) in the lit state (450 nm LEDs; Figures S7-S9)
[9] = target: T2, OdAu1abZIPLOV (Aureochrome1a bZIP-LOV), …; test: size-exclusion chromatography; dark state, 50 uM protein; DNA binding buffer: 20 mM HEPES pH 7.4, 100 mM NaCl, 10 mM MgCl2, 1 mM TCEP; EMSA: 20 nM DNA, 10% glycerol, BSA, poly-dI-dC, at 4 C; SEC samples incubated 30 mi
[10] = target: T1, OdAu1abZIPLOV (Aureochrome1a bZIP-LOV), …; test: as above

- stoichiometry N [1]: 2
- stoichiometry N [2]: 2
Molecule: FMN-containing OdAu1aLOV (isolated LOV domain of Ochromonas danica Aureochrome1a) (domain or fragment)

- stoichiometry N [5]: 2
- stoichiometry N [6]: 2
B2: FMN-containing OdAu1a_(bZIPLOV) (bZIP and LOV domains of Ochromonas danica Aureochrome1a) (domain or fragment)
chain: EEQKIERRERNREHAKRSRVRKKFLLESLQHSVRALEEENEKLRNAIRENLQGEAEQLLTRCSCGGPSVIASDPNTATRTLDDPDYSLVKALQTAQQNFVISDPSIPDNPIVYASQGFLTLTGYALSEVLGRNCRFLQGPETDPKAVEKVRKGLERGEDTTVVLLNYRKDGSTFWNQLFIAALRDGEGNVVNYLGVQCKVSEDYAKAFLKNEENEK
modifications: not checked

Continued, molecule first:

B1: OdAu1a recognition DNA, TAMRA (dsDNA)
DNA 1: TGTAGCGTCTGACGTGGTTCCCAC
DNA 2: GTGGGAACCACGTCAGACGCTACA
- binding result [3]: binds
- binding result [4]: binds

B3: 5dFMN-containing OdAu1a_(bZIPLOV) (bZIP and LOV domains of Ochromonas danica Aureochrome1a refolded with 5-deazaflavin mononucleotide) (domain or fragment)
chain: B2 chain
modifications: not checked
- stoichiometry N [7]: 2
- stoichiometry N [8]: 2

B4: OdAu1a recognition DNA, 24 bp, unlabelled (dsDNA)
DNA 1: TGTAGCGTCTGACGTGGTTCCCAC
DNA 2: GTGGGAACCACGTCAGACGCTACA
- binding result [9]: binds
- binding result [10]: binds
